Experimental data from patent US9266964.

Target: human plasma kallikrein (human, UniProt P03952 20-390; P03952 391-638)
Assay: cell-based or functional assay

human plasma kallikrein, sequence (P03952 20-390, chain 1 of 2): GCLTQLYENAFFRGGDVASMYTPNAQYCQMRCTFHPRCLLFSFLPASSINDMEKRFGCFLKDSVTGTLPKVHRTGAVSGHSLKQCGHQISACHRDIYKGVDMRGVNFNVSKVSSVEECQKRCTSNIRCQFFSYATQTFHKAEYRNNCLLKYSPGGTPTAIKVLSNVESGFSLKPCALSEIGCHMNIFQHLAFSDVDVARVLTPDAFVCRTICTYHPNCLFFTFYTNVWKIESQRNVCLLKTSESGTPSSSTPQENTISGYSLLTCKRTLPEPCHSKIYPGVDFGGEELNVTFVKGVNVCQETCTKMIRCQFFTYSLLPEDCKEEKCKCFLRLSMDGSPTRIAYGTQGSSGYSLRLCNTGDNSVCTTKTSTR
human plasma kallikrein, sequence (P03952 391-638, chain 2 of 2): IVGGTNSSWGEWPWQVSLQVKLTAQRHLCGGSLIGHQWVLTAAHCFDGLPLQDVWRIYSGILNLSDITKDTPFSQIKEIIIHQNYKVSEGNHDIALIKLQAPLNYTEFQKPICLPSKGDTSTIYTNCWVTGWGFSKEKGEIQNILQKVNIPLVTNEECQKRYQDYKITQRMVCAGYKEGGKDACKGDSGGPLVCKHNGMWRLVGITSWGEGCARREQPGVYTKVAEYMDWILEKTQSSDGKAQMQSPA

% inhibition at 10 nM | Binder
82.6% | M209-H03 (Fab, V domains shown) VH: EVQLLESGGGLVQPGGSLRLSCAASGFTFSHYLMTWVRQAPGKGLEWVSYISPSGGHTIYADSVKGRFTISRDNSKNTLYLQMNSLRAEDTAVYYCARVAQGIAARSRTTQFDYWGQGTLVTVSS VL: DIQMTQSPGTLSLSPGERATLSCRTSQFVNSNYLAWYQQTPGQAPRLLIYGASSRATGIPDRFSGTGYGTDFTLTISRLEPEDYGTYYCQQSSRTPWTFGQGTRVEIK
77.1% | M205-H01 (Fab, V domains shown) VH: EVQLLESGGGLVQPGGSLRLSCAASGFTFSNYTMQWVRQAPGKGLQWVSYISPSGGYTGYADSVKGRFTISRDNSKNTLYLQMNSLRAEDTAVYYCARVARGIAARSRTSYFDYWGQGTLVTVSS VL: DIQMTQSPGTLSLSPGERATLSCRTSQFVNSNYLAWYQQTPGQAPRLLIYGASSRATGIPDRFSGTGYGTDFTLTISRLEPEDYGTYYCQQSSRTPWTFGQGTRVEIK
74.8% | M210-A06 (Fab, V domains shown) VH: EVQLLESGGGLVQPGGSLRLSCAASGFTFSHYLMTWVRQAPGKGLEWVSYISPSGGHTIYADSVKGRFTISRDNSKNTLYLQMNSLRAEDTAVYYCARVARGIAARSRTSQFDYWGQGTLVTVSS VL: DIQMTQSPGTLSLSPGERATLSCRTSQFVNSNYLAWYQQTPGQAPRLLIYGASSRATGIPDRFSGTGYGTDFTLTISRLEPEDYGTYYCQQSSRTPWTFGQGTRVEIK
82.5% | M206-H05 (Fab, V domains shown) VH: EVQLLESGGGLVQPGGSLRLSCAASGFTFSGYKMQWVRQAPGKGLEWVSSISPSGGITMYADSVKGRFTISRDNSKNTLYLQMNSLRAEDTAVYYCARVARGIAARSRTSYFDYWGQGTLVTVSS VL: DIQMTQSPGTLSLSPGERATLSCRTSQFVNSNYLAWYQQTPGQAPRLLIYGASSRATGIPDRFSGTGYGTDFTLTISRLEPEDYGTYYCQQSSRTPWTFGQGTRVEIK
76.6% | M207-A02 (Fab, V domains shown) VH: EVQLLESGGGLVQPGGSLRLSCAASGFTFSHYLMTWVRQAPGKGLEWVSYISPSGGHTIYADSVKGRFTISRDNSKNTLYLQMNSLRAEDTALYYCARVARGIAARSRTINLDYWGQGTLVTVSS VL: DIQMTQSPGTLSLSPGERATLSCRTSQFVNSNYLAWYQQTPGQAPRLLIYGASSRATGIPDRFSGTGYGTDFTLTISRLEPEDYGTYYCQQSSRTPWTFGQGTRVEIK
71.1% | M205-B04 (Fab, V domains shown) VH: EVQLLESGGGLVQPGGSLRLSCAASGFTFSNYDMIWVRQAPGKGLEWVSSISSSGGTTKYADSVKGRFTISRDNSKNTLYLQMNSLRAEDTAVYYCARVARGIAARSRTSYFDYWGQGTLVTVSS VL: DIQMTQSPGTLSLSPGERATLSCRTSQFVNSNYLAWYQQTPGQAPRLLIYGASSRATGIPDRFSGTGYGTDFTLTISRLEPEDYGTYYCQQSSRTPWTFGQGTRVEIK
80.3% | M205-A02 (Fab, V domains shown) VH: EVQLLESGGGLVQPGGSLRLSCAASGFTFSTYLMAWVRQAPGKGLEWVSGIVSSGGRTLYADSVKGRFTISRDNSKNTLYLQMNSLRAEDTAVYYCARVARGIAARSRTSYFDYWGQGTLVTVSS VL: DIQMTQSPGTLSLSPGERATLSCRTSQFVNSNYLAWYQQTPGQAPRLLIYGASSRATGIPDRFSGTGYGTDFTLTISRLEPEDYGTYYCQQSSRTPWTFGQGTRVEIK
74.7% | M209-D02 (Fab, V domains shown) VH: EVQLLESGGGLVQPGGSLRLSCAASGFTFSHYLMTWVRQAPGKGLEWVSYISPSGGHTIYADSVKGRFTISRDNSKNTLYLQMNSLRAEDTAVYYCARVARGITARSRTSYFDDWGQGTLVTVSS VL: DIQMTQSPGTLSLSPGERATLSCRTSQFVNSNYLAWYQQTPGQAPRLLIYGASSRATGIPDRFSGTGYGTDFTLTISRLEPEDYGTYYCQQSSRTPWTFGQGTRVEIK
78.2% | M205-E11 (Fab, V domains shown) VH: EVQLLESGGGLVQPGGSLRLSCAASGFTFSNYTMGWVRQAPGKGLEWVSSISPSGGKTDYADSVKGRFTISRDNSKNTLYLQMNSLRAEDTAVYYCARVARGIAARSRTSYFDYWGQGTLVTVSS VL: DIQMTQSPGTLSLSPGERATLSCRTSQFVNSNYLAWYQQTPGQAPRLLIYGASSRATGIPDRFSGTGYGTDFTLTISRLEPEDYGTYYCQQSSRTPWTFGQGTRVEIK
65.5% | M206-C03 (Fab, V domains shown) VH: EVQLLESGGGLVQPGGSLRLSCAASGFTFSQYMMVWVRQAPGKGLEWVSSIYSSGGNTPYADSVKGRFTISRDNSKNTLYLQMNSLRAEDTAVYYCARVARGIAARSRTSYFDYWGQGTLVTVSS VL: DIQMTQSPGTLSLSPGERATLSCRTSQFVNSNYLAWYQQTPGQAPRLLIYGASSRATGIPDRFSGTGYGTDFTLTISRLEPEDYGTYYCQQSSRTPWTFGQGTRVEIK
58.8% | M205-A12 (Fab, V domains shown) VH: EVQLLESGGGLVQPGGSLRLSCAASGFTFSQYDMIWVRQAPGKGLEWVSYISSSGGFTRYADSVKGRFTISRDNSKNTLYLQMNSLRAEDTAVYYCARVARGIAARSRTSYFDYWGQGTLVTVSS VL: DIQMTQSPGTLSLSPGERATLSCRTSQFVNSNYLAWYQQTPGQAPRLLIYGASSRATGIPDRFSGTGYGTDFTLTISRLEPEDYGTYYCQQSSRTPWTFGQGTRVEIK

The remaining lines, values behind:

Binder | % inhibition at 10 nM
M206-E02 (Fab, V domains shown) VH: EVQLLESGGGLVQPGGSLRLSCAASGFTFSEYMMMWVRQAPGKGLEWVSVISPSGGQTHYADSVKGRFTISRDNSKNTLYLQMNSLRAEDTAVYYCARVARGIAARSRTSYFDYWGQGTLVTVSS VL: DIQMTQSPGTLSLSPGERATLSCRTSQFVNSNYLAWYQQTPGQAPRLLIYGASSRATGIPDRFSGTGYGTDFTLTISRLEPEDYGTYYCQQSSRTPWTFGQGTRVEIK | 77.6%
M205-F03 (Fab, V domains shown) VH: EVQLLESGGGLVQPGGSLRLSCAASGFTFSSQQMVWVRQAPGKGLEWVSYISPSGGNTYYADSVKGRFTISRDNSKNTLYLQMNSLRAEDTAVYYCARVARGIAARSRTSYFDYWGQGTLVTVSS VL: DIQMTQSPGTLSLSPGERATLSCRTSQFVNSNYLAWYQQTPGQAPRLLIYGASSRATGIPDRFSGTGYGTDFTLTISRLEPEDYGTYYCQQSSRTPWTFGQGTRVEIK | 58.6%
M203-A01 (Fab, V domains shown) VH: EVQLLESGGGLVQPGGSLRLSCAASGFTFSNYLMAWVRQAPGKGLEWVSWIVPSGGYTEYADSVKGRFTISRDNSKNTLYLQMNSLRAEDTAVYYCARVARGIAARSRTSYFDYWGQGTLVTVSS VL: DIQMTQSPGTLSLSPGERATLSCRTSQFVNSNYLAWYQQTPGQAPRLLIYGASSRATGIPDRFSGTGYGTDFTLTISRLEPEDYGTYYCQQSSRTPWTFGQGTRVEIK | 51.4%
M209-G01 (Fab, V domains shown) VH: EVQLLESGGGLVQPGGSLRLSCAASGFTFSHYLMTWVRQAPGKGLEWVSYISPSGGHTIYADSVKGRFTISRDNSKNTLYLQMNSLRAEDTAVYYCARVAQGISGRSRLSYVDYWGQGTLVTVSS VL: DIQMTQSPGTLSLSPGERATLSCRTSQFVNSNYLAWYQQTPGQAPRLLIYGASSRATGIPDRFSGTGYGTDFTLTISRLEPEDYGTYYCQQSSRTPWTFGQGTRVEIK | 74.8%
M209-H07 (Fab, V domains shown) VH: EVQLLESGGGLVQPGGSLRLSCAASGFTFSHYLMTWVRQAPGKGLEWVSYISPSGGHTIYADSVKGRFTISRDNSKNTLYLQMNSLRAEDTAVYYCARVARGIAARQRTSYYDYWGQGTLVTVSS VL: DIQMTQSPGTLSLSPGERATLSCRTSQFVNSNYLAWYQQTPGQAPRLLIYGASSRATGIPDRFSGTGYGTDFTLTISRLEPEDYGTYYCQQSSRTPWTFGQGTRVEIK | 76.1%
M203-A03 (Fab, V domains shown) VH: EVQLLESGGGLVQPGGSLRLSCAASGFTFSVYMMIWVRQAPGKGLEWVSSISPSGGQTTYADSVKGRFTISRDNSKNTLYLQMNSLRAEDTAVYYCARVARGIAARSRTSYFDYWGQGTLVTVSS VL: DIQMTQSPGTLSLSPGERATLSCRTSQFVNSNYLAWYQQTPGQAPRLLIYGASSRATGIPDRFSGTGYGTDFTLTISRLEPEDYGTYYCQQSSRTPWTFGQGTRVEIK | 69.1%
M208-A10 (Fab, V domains shown) VH: EVQLLESGGGLVQPGGSLRLSCAASGFTFSHYLMTWVRQAPGKGLEWVSYISPSGGHTIYADSVKGRFTISRDNSKNTLYLQMNSLRAEDTAVYYCARVARGIAARSRTSQFDHWGQGTLVTVSS VL: DIQMTQSPGTLSLSPGERATLSCRTSQFVNSNYLAWYQQTPGQAPRLLIYGASSRATGIPDRFSGTGYGTDFTLTISRLEPEDYGTYYCQQSSRTPWTFGQGTRVEIK | 78.5%
M209-E03 (Fab, V domains shown) VH: EVQLLESGGGLVQPGGSLRLSCAASGFTFSHYLMTWVRQAPGKGLEWVSYISPSGGHTIYADSVKGRFTISRDNSKNTLYLQMNSLRAEDTAVYYCARQARGIAARSRTSYFDYWGQGTLVTVSS VL: DIQMTQSPGTLSLSPGERATLSCRTSQFVNSNYLAWYQQTPGQAPRLLIYGASSRATGIPDRFSGTGYGTDFTLTISRLEPEDYGTYYCQQSSRTPWTFGQGTRVEIK | 68.8%
M207-A01 (Fab, V domains shown) VH: EVQLLESGGGLVQPGGSLRLSCAASGFTFSHYLMTWVRQAPGKGLEWVSYISPSGGHTIYADSVKGRFTISRDNSKNTLYLQMNSLRAEDTAVYYCARVARGISARSRTSCFDYWGQGTLVTVSS VL: DIQMTQSPGTLSLSPGERATLSCRTSQFVNSNYLAWYQQTPGQAPRLLIYGASSRATGIPDRFSGTGYGTDFTLTISRLEPEDYGTYYCQQSSRTPWTFGQGTRVEIK | 67.2%
M207-C05 (Fab, V domains shown) VH: EVQLLESGGGLVQPGGSLRLSCAASGFTFSHYLMTWVRQAPGKGLEWVSYISPSGGHTIYADSVKGRFTISRDNSKNTLYLQMNSLRAEDTAVYYCARVGRGIAARSRTSYFDKWGQGTLVTVSS VL: DIQMTQSPGTLSLSPGERATLSCRTSQFVNSNYLAWYQQTPGQAPRLLIYGASSRATGIPDRFSGTGYGTDFTLTISRLEPEDYGTYYCQQSSRTPWTFGQGTRVEIK | 61.4%
